Entries after “also recorded” stand apart in the source; their conditions may differ.
Assays:
Human mPB CD34+ cells = test: Proliferative activity on human granulocyte progenitors (flow cytometry); format: cell-based; conditions: 7 days
Method: Human mPB CD34^+ cells were purchased from AllCells. Cells were resuspended in HSC expansion medium (StemSpan SFEM, StemCell Technologies) supplemented with 1× antibiotics and the following recombinant human cytokines thrombopoietin, IL6, Flt3 ligand, and stem cell factor (100 ng/mL, R & D Systems), then plated in 96-well plates (1000 cells per well), with varied concentrations of BLV1H12-bGCSF fusion antibodies. Cells were cultured for 7 days at 37° C. in a 5% CO2 incubator, then analyzed by flow cytometry to measure cell number and expression of CD45ra and CD41. Cells were stained in staining medium (HBSS supplemented with 2% FBS and 2 mM EDTA) at 4° C. for 1 h with PECy7 anti-CD45ra and eFluor 450 anti-CD41 (eBiosciences), then washed with staining medium and analyzed. Multicolor analysis for cell phenotyping was performed on a LSR II flow cytometer (Becton Dickinson). FIGS. 10A-10E and Tables 9-10 show the human granulocyte progenitor cell proliferative activities of the Ab-GCSF fusion antibodies.

mice neutrophils = test: Neutrophils counts in mice; format: in vivo; conditions: mice blood, 10th day post-injection, neutrophils among white blood cells
Method: On the 10th day after injection of BLV1H12-bGCSF fusion antibodies into mice for PK study, blood samples were drawn from the mice and stained using the Diff Quick Staining Kit (Thermo Fisher Scientific, IL). Neutrophils and white blood cells were counted under microscope and the percentages of neutrophils were analyzed. FIGS. 12A-12B and Table 12 show proliferative activities of BLV1H12-bGCSF fusion antibodies on mice neutrophils that are blood stained and counted at the 10th day post-injection.

Mouse NFS-60 cells = test: Proliferation assay on mouse NFS-60 cells (AlamarBlue); format: cell-based; conditions: 72 hours
Method: Mouse NFS-60 cells were obtained from American Type Culture Collection (ATCC), VA, and cultured in RPMI-1640 medium supplemented with 10% fetal bovine serum (FBS), 0.05 mM 2-mercapoethanol and 62 ng/ml human macrophage colony stimulating factor (M-CSF). For proliferation assay, mouse NFS-60 cells were washed three times with RPMI-1640 medium and resuspended in RPMI-1640 medium with 10% FBS and 0.05 mM 2-mercapoethanol at a density of 1.5×10^5 cells/ml. In 96-well plates, 100 μl of cell suspension was added into each well, followed by the addition of varied concentrations of bGCSF, BLV1H12 antibody, and the immunoglobulin constructs described herein, Equal volume of PBS buffer was added into the control wells. The plates were incubated at 37° C. in a 5% CO2 incubator for 72 hours. Cells were then treated with AlamarBlue (Invitrogen) ( 1/10 volume of cell suspension) for 4 hours at 37° C. Fluorescence at 595 nm for each well was read to indicate the cell viability.

[1] = Pharmacokinetics of BLV1H12-bGCSF fusion antibodies in mice; format: in vivo; conditions: BALB/c mice, 70 μg injected
Method: For PK study in mice, 70 μg of the immunoglobulin constructs described herein were injected into 3 BALB/c mice per group. Blood samples were drawn from time 0 to 14 days with extended intervals and analyzed by ELISA using anti-human IgG Fc antibody with horseradish peroxidase (HRP) labeled (KPL) and anti-6×His antibody with HRP labeled (Clontech). Data were normalized by taking maximal concentration at the first time point (30 min).

Parental U2OS = test: Flow cytometry binding to parental cells; conditions: cell culture supernatant containing expressed IgG, anti-Human Fc detection
Method: (§1) Briefly, a cell line expressing functionally validated CXCR1 derived from U2OS cells was obtained from DiscoveRx and cultured per manufacturer's instructions (Cat#93-0226C3, DiscoveRx Corporation, Freemont, Calif.). The parental cell line U20S was obtained from ATCC and cultured under the same conditions as the CXCR1 cells. Cell culture supernatants from Example 2 above were then tested for binding to cells by flow cytometry. The adherent U20S or CXCR1-U20S cells were dissociated with Accutase (Innovative Cell Technologies, Inc., San Diego, Calif.), neutralized with an equal volume of media containing 10% serum, centrifuged at 1000 g, and resuspended in PBS with 2% BSA. Next, cells were dispensed into microtiter plates to achieve between 30,000 to 300,000 cells per well, centrifuged again, and resuspended in cell culture supernatant containing expressed IgG, or a dilution of IgG-containing cell culture supernatant. A fluorescent-conjugated anti-Human Fc antibody was used to detect binding of the expressedBLV1H12-IL8 fusion proteins to cells.

CXCR1-U2OS = target: T1, CXCR1-U2OS (Homo sapiens, UniProt P25024); test: Flow cytometry binding to CXCR1 expressing cells
T1 construct: host or cells: U2OS-derived CXCR1 cell line, purchased
T1 sequence (P25024 1-350): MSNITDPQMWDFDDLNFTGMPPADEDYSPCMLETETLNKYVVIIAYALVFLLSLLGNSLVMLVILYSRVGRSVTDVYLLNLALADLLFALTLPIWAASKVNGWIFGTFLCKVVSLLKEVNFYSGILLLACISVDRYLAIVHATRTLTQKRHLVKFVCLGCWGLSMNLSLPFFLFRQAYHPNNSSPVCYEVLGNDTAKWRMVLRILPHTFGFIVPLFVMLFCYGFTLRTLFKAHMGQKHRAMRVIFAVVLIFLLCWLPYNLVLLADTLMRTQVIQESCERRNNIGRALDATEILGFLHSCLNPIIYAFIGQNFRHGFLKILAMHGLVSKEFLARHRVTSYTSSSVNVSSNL
Method: as §1

[2] = system: NS2-3 non-structural proteins of BVDV; test: Immunocytometric analysis of HEK 293A cells transfected with BVDV antigens; format: binding; conditions: 10 μg/ml antibody
Method: Additionally, binding of the chimeric recombinant antibodies to BVDV antigens was evaluated by immunocytometric analysis of transfected human embryonic kidney (HEK) 293A cells (Invitrogen), as previously described (see, e.g., Njongmeta et al. (2012) Vaccine 30:1624-1635). Briefly, HEK 293A monolayers grown in 6-well tissue culture plates were transfected with 2 μg/well of plasmid (pcDNA3.3, Invitrogen) encoding BVDV antigens (N^pro, E2, or non-structural proteins NS2-3) using Lipofectamine 2000 reagent (Invitrogen), and incubated for 48 hr at 37° C. with 5% CO2. The monolayers were fixed with ice-cold 100% methanol for 10 minutes, rinsed with PBS, and after blocking for 1 hr with PBS containing 5% fetal bovine serum (blocking buffer), the monolayers were incubated at room temperature for 1 hr with 10 μg/ml of a mouse anti-FLAG M2-alkaline phosphatase (AP)-conjugate (Sigma) in blocking buffer or 10 μg/ml of the chimeric recombinant antibodies (H12 or B8). […] Following washes in blocking buffer, the AP activity in all the wells was detected using Fast Red AS-MX substrate (Sigma). […]

B1: bGCSF: bovine G-CSF (granulocyte colony-stimulating factor) (protein, listed as Bos taurus)
chain: TPLGPARSLPQSFLLKCLEQVRKIQADGAELQERLCAAHKLCHPEELMLLRHSLGIPQAPLSSCSSQSLQLTSCLNQLHGGLFLYQGLLQALAGISPELAPTLDTLQLDVTDFATNIWLQMEDLGAAPAVQPTQGAMPTFTSAFQRRAGGVLVASQLHRFLELAYRGLRYLAEP
modifications: bGCSF
Human mPB CD34+ cells; 0.55886 ng/mL
  Number of CD45RA− CD41−: 7354
Human mPB CD34+ cells; 1.67657 ng/mL
  Number of CD45RA− CD41−: 9776
Human mPB CD34+ cells; 5.02972 ng/mL
  Number of CD45RA− CD41−: 12700
Human mPB CD34+ cells; 15.08916 ng/mL
  Number of CD45RA− CD41−: 13200
Human mPB CD34+ cells; 45.26749 ng/mL
  Number of CD45RA− CD41−: 13700
Human mPB CD34+ cells; 135.80247 ng/mL
  Number of CD45RA− CD41−: 13300
Human mPB CD34+ cells; 407.40741 ng/mL
  Number of CD45RA− CD41−: 13700
Human mPB CD34+ cells; 1222.22222 ng/mL
  Number of CD45RA− CD41−: 14100
Human mPB CD34+ cells; 3666.66667 ng/mL
  Number of CD45RA− CD41−: 13100
Human mPB CD34+ cells; 11000 ng/mL
  Number of CD45RA− CD41−: 13800
Mice neutrophils
  Percentage of Neutrophil: 16.48
Mouse NFS-60 cells; 0.09145 ng/mL
  F.I. (AlamarBlue fluorescence at 595 nm, cell viability): 1214
Mouse NFS-60 cells; 0.27435 ng/mL
  F.I. (AlamarBlue fluorescence at 595 nm, cell viability): 1360.925
Mouse NFS-60 cells; 0.82305 ng/mL
  F.I. (AlamarBlue fluorescence at 595 nm, cell viability): 1761
Mouse NFS-60 cells; 2.46914 ng/mL
  F.I. (AlamarBlue fluorescence at 595 nm, cell viability): 2101
Mouse NFS-60 cells; 7.40741 ng/mL
  F.I. (AlamarBlue fluorescence at 595 nm, cell viability): 2405
Mouse NFS-60 cells; 22.22222 ng/mL
  F.I. (AlamarBlue fluorescence at 595 nm, cell viability): 2646
Mouse NFS-60 cells; 66.66667 ng/mL
  F.I. (AlamarBlue fluorescence at 595 nm, cell viability): 2812.098
Mouse NFS-60 cells; 200 ng/mL
  F.I. (AlamarBlue fluorescence at 595 nm, cell viability): 3087.144
[1]; 0.5 hour
  Percentage (normalized to maximal concentration at the first time point, 30 min): 100.00%
[1]; 1 hour
  Percentage (normalized to maximal concentration at the first time point, 30 min): 79.52%
[1]; 3 hour
  Percentage (normalized to maximal concentration at the first time point, 30 min): 56.81%
[1]; 6 hour
  Percentage (normalized to maximal concentration at the first time point, 30 min): 14.94%
[1]; 24 hour
  Percentage (normalized to maximal concentration at the first time point, 30 min): 4.08%
[1]; 48 hour
  Percentage (normalized to maximal concentration at the first time point, 30 min): 0.00%
[1]; 72 hour
  Percentage (normalized to maximal concentration at the first time point, 30 min): 0.00%

B2: BLV1H12-IL8: human IL-8 (amino acids 26-99) replacing the knob domain of BLV1H12; heavy chain variable region SEQ ID NO: 38 (antibody)
VH: QVQLRESGPSLVKPSQTLSLTCTASGFSLSDKAVGWVRQAPGKALEWLGSIDTGGNTGYNPGLKSRLSITKDNSKSQVSLSVSSVTTEDSATYYCTSVHQETKKYQSPRSAKELRCQCIKTYSKPFHPKFIKELRVIESGPHCANTEIIVKLSDGRELCLDPKENWVQRVVEKFLKRAENSGSGSYTYNYEWHVDVWGQGLLVTV
light: QAVLNQPSSVSGSLGQRVSITCSGSSSNVGNGYVSWYQLIPGSAPRTLIYGDTSRASGVPDRFSGSRSGNTATLTISSLQAEDEADYFCASAEDSSSNAVFGSGTTLTVLGQPKSPPSVTLFPPSTEELNGNKATLVCLISDFYPGSVTVVWKADGSTITRNVETTRASKQSNSKYAASSYLSLTSSDWKSKGSYSCEVTHEGSTVTKTVKPSECS
Parental U2OS
  Median Arbitrary Fluorescence Units (AFU): 76 AFU
CXCR1-U2OS
  ratio of median fluorescence (IgG binding) of CXCR1-U2OS cells versus U2OS parental cells: has specificity for CXCR1
CXCR1-U2OS; CXCR1-U2OS cells, cell culture supernatant containing expressed IgG, anti-Human Fc detection
  Median Arbitrary Fluorescence Units (AFU): 707 AFU

B3: hGCSF: human G-CSF (protein, UniProt P09919 31-207, looked up)
Granulocyte …: TPLGPASSLPQSFLLKCLEQVRKIQGDGAALQEKLVSECATYKLCHPEELVLLGHSLGIPWAPLSSCPSQALQLAGCLSQLHSGLFLYQGLLQALEGISPELGPTLDTLQLDVADFATTIWQQMEELGMAPALQPTQGAMPAFASAFQRRAGGVLVASHLQSFLEVSYRVLRHLAQP
Human mPB CD34+ cells; 0.05081 ng/mL
  Number of CD45RA− CD41−: 4175
Human mPB CD34+ cells; 0.15242 ng/mL
  Number of CD45RA− CD41−: 3651
Human mPB CD34+ cells; 0.45725 ng/mL
  Number of CD45RA− CD41−: 3671
Human mPB CD34+ cells; 1.37174 ng/mL
  Number of CD45RA− CD41−: 4299
Human mPB CD34+ cells; 4.11523 ng/mL
  Number of CD45RA− CD41−: 5900
Human mPB CD34+ cells; 12.34568 ng/mL
  Number of CD45RA− CD41−: 7784
Human mPB CD34+ cells; 37.03704 ng/mL
  Number of CD45RA− CD41−: 10500
Human mPB CD34+ cells; 111.11111 ng/mL
  Number of CD45RA− CD41−: 12200
Human mPB CD34+ cells; 333.33333 ng/mL
  Number of CD45RA− CD41−: 14100
Human mPB CD34+ cells; 1000 ng/mL
  Number of CD45RA− CD41−: 13900
Mouse NFS-60 cells; 0.09145 ng/mL
  F.I. (AlamarBlue fluorescence at 595 nm, cell viability): 1266.554
Mouse NFS-60 cells; 0.27435 ng/mL
  F.I. (AlamarBlue fluorescence at 595 nm, cell viability): 1478.287
Mouse NFS-60 cells; 0.82305 ng/mL
  F.I. (AlamarBlue fluorescence at 595 nm, cell viability): 1752.216
Mouse NFS-60 cells; 2.46914 ng/mL
  F.I. (AlamarBlue fluorescence at 595 nm, cell viability): 2224.028
Mouse NFS-60 cells; 7.40741 ng/mL
  F.I. (AlamarBlue fluorescence at 595 nm, cell viability): 2587.222
Mouse NFS-60 cells; 22.22222 ng/mL
  F.I. (AlamarBlue fluorescence at 595 nm, cell viability): 2751.249
Mouse NFS-60 cells; 66.66667 ng/mL
  F.I. (AlamarBlue fluorescence at 595 nm, cell viability): 2815.37
Mouse NFS-60 cells; 200 ng/mL
  F.I. (AlamarBlue fluorescence at 595 nm, cell viability): 2948.509

B4: H12 (protein, listed as Bos taurus)
chain: CVIVHQKTTQQSSCPAGFRDCVACTPGPESCCRSGCDGARRRVGLRYFFDSTSPITTYTYEHHIDAW
modifications: H12
[2]; HEK293A cells transfected with the NS2-3 non-structural proteins of BVDV
  binding to HEK293A cells transfected with NS2-3: binds NS2-3 on cells; also recorded: strongly binds
[2]; untransfected HEK293A cells
  binding to untransfected cells: weakly bound

Reference: patent US20140050720A1, “ULTRALONG COMPLEMENTARITY DETERMINING REGIONS AND USES THEREOF” (THE SCRIPPS RESEARCH INSTITUTE, priority 2012, published 2014)
